Reference: US20220196676A1 (NORDIC BIOSCIENCE A S, published 2022)

Key:
[1] = biological target: T1, elongated peptide SFSGYLLYPMA; test: C8-C competitive ELISA with HRP-labelled 13G5
T1 construct: Selection peptide with one more alanine at the C-terminus; synthetic (Chinese Peptide Company); also called elongated peptide (one additional amino acid)
T1 peptide: SFSGYLLYPMA
Description: (§1) ELISA-plates used for the assay development were Streptavidin-coated from Roche (cat.: 11940279). All ELISA plates were analyzed with the ELISA reader from Molecular Devices, SpectraMax M, (CA, USA). We labelled the selected monoclonal antibody with horseradish peroxidase (HRP) using the Lightning link HRP labelling kit according to the instructions of the manufacturer (Innovabioscience, Babraham, Cambridge, UK). A 96-well streptavidin plate was coated with biotinylated synthetic peptide biotin-[…] (SEQ ID NO: 25) (Chinese Peptide Company, China) dissolved in assay buffer (50 mM Trizma, 0.46 mM Tween 20, 0.08 mM Phenol Red, 34 mM NaCl, 0.36% Bronidox L5, 1% BSA, pH 7.4) and incubated 30 minutes at 20° C. 20 μL of standard peptide or samples diluted in assay buffer were added to appropriate wells, followed by 100 μL of HRP conjugated monoclonal antibody 13G5, and incubated 20 hour at 4° C. Finally, 100 μL tetramethylbenzinidine (TMB) (Kem-En-Tec cat.4380H) was added and the plate was incubated 15 minutes at 20° C. in the dark. All the above incubation steps included shaking at 300 rpm. After each incubation step the plate was washed five times in washing buffer (20 mM Tris, 50 mM NaCl). The TMB reaction was stopped by adding 100 μL of stopping solution (1% H₂SO₄) and measured at 450 nm with 650 nm as the reference. […]

[2] = biological target: T2, nonsense peptide YLSGPFMSYL; test: C8-C competitive ELISA with HRP-labelled 13G5
T2 construct: Control peptide of the C8-C specificity test; also called nonsense peptide (C8-C)
T2 peptide: YLSGPFMSYL
Description: as §1

- binding result [1]: no binding
- binding result [2]: no binding
B1: monoclonal antibody NB683-13G5 (antibody, mouse IgG1, kappa, V domains shown)
VH: EVLLQQSGPELEKPGASVKISCKASGYSLTDYNMNWVKQSDGKSLEWIGIIDPNYGDTNYNQKFKDKATLTVDKSSNTAHMQLKSLTSDDSAVYYCARSGYYGNSHYGLDYWGQGTSVTVSS
VL: QIVLTQSPAIMSASPGERVTMTCSVSSSVGYIHWYQQKSGTSPKRWISDTSKLASGVPSRFSGSGSGASYSLTIDRVEAEDAATYYCQQWSSNPPTFGGGTKLEMKR
notes: also called clone 13G5; monoclonal antibody 13G5
